Experimental data reported in PMC6200776.

Experiments:
VEGF121a-TMR = experiment: fluorescence SDS-PAGE with and without DTT; purified VEGF-TMR isoforms in the presence or absence of 100 mM DTT; dimer in non-reducing conditions
NanoLuc-VEGFR2 [1] = target: NanoLuc-VEGFR2 (UniProt P35968); experiment: FRET or BRET; NanoBRET kinetics: live HEK293T cells with NanoLuc receptor, furimazine 5 min before 1-20 nM fluorescent VEGF, read every 30 s at 37°C; global fit of five concentrations; KD as koff/kon
Chain of UniProt P35968 (P35968 20-1356): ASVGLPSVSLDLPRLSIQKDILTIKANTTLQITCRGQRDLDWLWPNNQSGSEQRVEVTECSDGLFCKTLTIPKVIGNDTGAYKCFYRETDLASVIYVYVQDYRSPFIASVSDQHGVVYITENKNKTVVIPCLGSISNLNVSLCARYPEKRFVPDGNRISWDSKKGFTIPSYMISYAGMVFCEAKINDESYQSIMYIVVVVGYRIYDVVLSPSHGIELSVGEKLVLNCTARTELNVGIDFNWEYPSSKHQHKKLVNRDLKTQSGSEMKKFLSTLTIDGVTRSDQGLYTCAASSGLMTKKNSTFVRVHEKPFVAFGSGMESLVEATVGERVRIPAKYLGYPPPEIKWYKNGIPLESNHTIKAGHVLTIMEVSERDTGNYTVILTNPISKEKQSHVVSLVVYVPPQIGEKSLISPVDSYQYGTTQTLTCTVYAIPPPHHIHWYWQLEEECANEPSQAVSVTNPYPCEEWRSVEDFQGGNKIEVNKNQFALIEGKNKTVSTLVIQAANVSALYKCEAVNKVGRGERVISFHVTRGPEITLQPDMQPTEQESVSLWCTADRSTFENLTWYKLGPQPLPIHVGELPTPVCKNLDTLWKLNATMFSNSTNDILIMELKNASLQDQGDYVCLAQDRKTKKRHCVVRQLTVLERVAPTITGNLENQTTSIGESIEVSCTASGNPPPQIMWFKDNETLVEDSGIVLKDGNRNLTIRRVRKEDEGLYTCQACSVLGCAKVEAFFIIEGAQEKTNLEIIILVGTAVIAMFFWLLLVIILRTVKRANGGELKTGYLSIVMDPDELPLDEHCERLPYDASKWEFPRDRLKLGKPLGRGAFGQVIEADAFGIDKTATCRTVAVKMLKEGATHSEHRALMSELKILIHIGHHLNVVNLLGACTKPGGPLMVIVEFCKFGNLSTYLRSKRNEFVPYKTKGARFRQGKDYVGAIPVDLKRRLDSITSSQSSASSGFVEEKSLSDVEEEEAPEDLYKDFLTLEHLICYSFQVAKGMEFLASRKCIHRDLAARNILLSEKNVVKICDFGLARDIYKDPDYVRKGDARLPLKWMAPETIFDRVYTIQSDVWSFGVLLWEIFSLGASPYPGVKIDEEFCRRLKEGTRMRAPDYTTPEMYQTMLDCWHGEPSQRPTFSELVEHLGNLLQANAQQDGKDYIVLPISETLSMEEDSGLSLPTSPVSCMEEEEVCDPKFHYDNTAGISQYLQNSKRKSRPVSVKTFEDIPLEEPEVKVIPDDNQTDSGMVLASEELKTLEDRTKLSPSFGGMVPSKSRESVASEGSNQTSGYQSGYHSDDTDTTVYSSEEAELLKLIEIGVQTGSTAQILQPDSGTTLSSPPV

NanoLuc-VEGFR2 [2] = target: NanoLuc-VEGFR2 (UniProt P35968); experiment: FRET or BRET; NanoBRET saturation: live HEK293T cells stably expressing the N-terminal NanoLuc receptor; increasing fluorescent VEGF with or without 100 nM unlabelled VEGF; 60 min, 37°C, HBSS/0.1% BSA
NanoLuc-NRP1 [3] = target: NanoLuc-NRP1 (UniProt O14786); experiment: FRET or BRET; NanoBRET full displacement: live HEK293T cells with NanoLuc receptor; increasing unlabelled VEGF (R&D Systems) added together with five fixed concentrations of fluorescent VEGF; 60 min, 37°C, HBSS/0.1% BSA
Chain of UniProt O14786 (O14786 22-923): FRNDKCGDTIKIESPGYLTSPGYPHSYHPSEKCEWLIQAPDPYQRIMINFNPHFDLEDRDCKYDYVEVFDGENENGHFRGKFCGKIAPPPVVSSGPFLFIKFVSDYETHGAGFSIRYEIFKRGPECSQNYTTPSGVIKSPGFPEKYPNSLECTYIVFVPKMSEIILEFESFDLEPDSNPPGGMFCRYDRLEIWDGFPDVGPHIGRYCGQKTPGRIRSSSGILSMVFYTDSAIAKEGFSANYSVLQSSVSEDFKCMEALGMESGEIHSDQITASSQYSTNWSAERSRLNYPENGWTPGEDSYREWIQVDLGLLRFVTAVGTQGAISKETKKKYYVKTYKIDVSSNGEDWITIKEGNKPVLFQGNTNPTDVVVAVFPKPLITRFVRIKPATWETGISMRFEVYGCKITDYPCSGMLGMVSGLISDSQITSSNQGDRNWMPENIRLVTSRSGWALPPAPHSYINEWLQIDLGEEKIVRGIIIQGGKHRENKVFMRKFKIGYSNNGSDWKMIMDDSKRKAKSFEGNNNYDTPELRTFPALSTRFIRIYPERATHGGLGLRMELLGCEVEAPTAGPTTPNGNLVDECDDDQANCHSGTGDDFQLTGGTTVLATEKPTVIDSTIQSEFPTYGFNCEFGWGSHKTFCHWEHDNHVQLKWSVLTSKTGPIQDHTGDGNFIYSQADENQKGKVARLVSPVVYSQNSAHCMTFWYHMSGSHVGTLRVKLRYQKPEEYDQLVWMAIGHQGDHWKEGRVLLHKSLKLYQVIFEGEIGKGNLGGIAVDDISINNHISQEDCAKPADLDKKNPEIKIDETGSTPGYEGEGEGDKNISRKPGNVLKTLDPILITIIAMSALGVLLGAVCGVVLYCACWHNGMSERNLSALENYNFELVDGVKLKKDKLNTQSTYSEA

NanoLuc-NRP1 [4] = target: NanoLuc-NRP1 (UniProt O14786); experiment: FRET or BRET; NanoBRET kinetics: live HEK293T cells with NanoLuc receptor, furimazine 5 min before 1-20 nM fluorescent VEGF, read every 30 s at 37°C; global fit of five concentrations; KD as koff/kon
NanoLuc-NRP1 [5] = target: NanoLuc-NRP1 (UniProt O14786); experiment: FRET or BRET; NanoBRET saturation: live HEK293T cells stably expressing the N-terminal NanoLuc receptor; increasing fluorescent VEGF with or without 100 nM unlabelled VEGF; 60 min, 37°C, HBSS/0.1% BSA
NanoLuc-VEGFR2 [6] = target: NanoLuc-VEGFR2 (UniProt P35968)
VEGF165b-TMR = experiment: fluorescence SDS-PAGE with and without DTT; purified VEGF-TMR isoforms in the presence or absence of 100 mM DTT; dimer in non-reducing conditions

stoichiometry N (VEGF121a-TMR) | Kd (NanoLuc-VEGFR2 [1]) [nM] | koff (NanoLuc-VEGFR2 [1]) [s⁻¹] | kon (NanoLuc-VEGFR2 [1]) [M⁻¹ s⁻¹] | Kd (NanoLuc-VEGFR2 [2]) [nM] | Ki (NanoLuc-NRP1 [3]) [nM] | pKi (NanoLuc-NRP1 [3]) | Kd (NanoLuc-NRP1 [4]) [nM] | koff (NanoLuc-NRP1 [4]) [s⁻¹] | kon (NanoLuc-NRP1 [4]) [M⁻¹ s⁻¹] | Kd (NanoLuc-NRP1 [5]) [nM] | Kd (NanoLuc-NRP1 [3]) [nM] | Substance | pEC50 of the NFAT reporter gene response, as told again in the discussion with another number (NanoLuc-VEGFR2 [6]) | stoichiometry N (VEGF165b-TMR)
2 | 5.75 | 0.000833 | 142000 | 5.54 |  |  |  |  |  |  |  | VEGF121a-TMR (ligand) |  | 
 |  |  |  |  | 0.1 | 9.54 |  |  |  |  |  | VEGF165a (ligand) |  | 
 | 6.64 | 0.001 | 257000 | 2.03 |  |  | 4.95 | 0.00433 | 1.18e+06 | 4.41 | 1.11 | VEGF165a-TMR (ligand) |  | 

Substance | stoichiometry N (VEGF121a-TMR) | Kd (NanoLuc-VEGFR2 [1]) [nM] | koff (NanoLuc-VEGFR2 [1]) [s⁻¹] | kon (NanoLuc-VEGFR2 [1]) [M⁻¹ s⁻¹] | Kd (NanoLuc-VEGFR2 [2]) [nM] | Ki (NanoLuc-NRP1 [3]) [nM] | pKi (NanoLuc-NRP1 [3]) | Kd (NanoLuc-NRP1 [4]) [nM] | koff (NanoLuc-NRP1 [4]) [s⁻¹] | kon (NanoLuc-NRP1 [4]) [M⁻¹ s⁻¹] | Kd (NanoLuc-NRP1 [5]) [nM] | Kd (NanoLuc-NRP1 [3]) [nM] | pEC50 of the NFAT reporter gene response, as told again in the discussion with another number (NanoLuc-VEGFR2 [6]) | stoichiometry N (VEGF165b-TMR)
VEGF165b-TMR (ligand) |  | 11.3 | 0.001 | 122000 | 9.53 |  |  |  |  |  |  |  | 8.28 | 2
